Results from publication PMC3795524.

Tests used:
[1] = target: KNH1144 SOSIP.R6 G-MPER gp140 (cleaved) (HIV-1 KNH1144 (subtype A)); test: AUC
[2] = target: KNH1144 SOSIP.R6 G-MPER gp140 (cleaved) (HIV-1 KNH1144 (subtype A)); test: native gel or EMSA
[3] = target: KNH1144 SOSIP.IEGR G-MPER gp140 (uncleaved) (HIV-1 KNH1144 (subtype A)); test: AUC
[4] = target: KNH1144 SOSIP.IEGR G-MPER gp140 (uncleaved) (HIV-1 KNH1144 (subtype A)); test: native gel or EMSA

Row | Substance | stoichiometry N [1] | stoichiometry N [2] | stoichiometry N [3] | stoichiometry N [4]
1 | KNH1144 SOSIP.R6 G-MPER gp140 (cleaved) (complex) | 3 | 3 |  | 
2 | KNH1144 SOSIP.IEGR G-MPER gp140 (uncleaved) (domain or fragment) |  |  | 3 | 3
